In US20170044259A1 (published 2017):
Residue numbers refer to the chain shown, from its start. Blank lines part the entries; values can stand above or below the binder they belong to.

How the values were obtained:
[1] = target: human PD-1-His (R & D systems, Minneapolis, Minn.) (human, UniProt Q15116 25-167); assay: BLI
[2] = target: T1, human PD-1-Fc (R and D systems, Minneapolis, Minn.) (human, UniProt Q15116 25-167); assay: ELISA; lower left panel
[3] = target: T1, human PD-1-Fc (R and D systems, …); assay: ELISA; upper left panel
[4] = target: T1, human PD-1-Fc (R and D systems, …); assay: ELISA; lower right panel
[5] = target: T1, human PD-1-Fc (R and D systems, …); assay: ELISA; upper right panel
[6] = target: T1, human PD-1-Fc (R and D systems, …); assay: inhibition ELISA; hPDL-1 Fc blockade
[7] = target: T1, human PD-1-Fc (R and D systems, …); assay: inhibition ELISA; hPDL-1 Fc blockade; remark: listed apart in the source
[8] = target: T1, human PD-1-Fc (R and D systems, …); assay: inhibition ELISA; hPDL-2 Fc blockade
[9] = target: T2, mouse PD-1 expressed on HEK293 cells (mouse, UniProt Q02242 25-288); assay: flow cytometry cell binding
T2 chain: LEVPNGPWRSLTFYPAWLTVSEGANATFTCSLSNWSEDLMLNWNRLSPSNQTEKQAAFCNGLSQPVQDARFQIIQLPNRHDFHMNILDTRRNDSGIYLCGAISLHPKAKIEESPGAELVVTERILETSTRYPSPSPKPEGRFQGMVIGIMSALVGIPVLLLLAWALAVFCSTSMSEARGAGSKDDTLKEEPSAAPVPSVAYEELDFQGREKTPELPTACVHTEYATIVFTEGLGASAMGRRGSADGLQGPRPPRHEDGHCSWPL

[10] = target: T2, mouse PD-1 expressed on HEK293 cells; assay: flow cytometry blocking; blocking of biotin-mPD-L1
[11] = target: T2, mouse PD-1 expressed on HEK293 cells; assay: flow cytometry blocking; blocking of biotin-mPD-L2
[12] = target: T1, human PD-1-Fc (R and D systems, …); assay: inhibition ELISA; hPDL-2 Fc blockade; remark: listed apart in the source
[13] = target: T1, human PD-1-Fc (R and D systems, …); assay: inhibition ELISA; hPDL-1 Fc blockade; remark: listed apart in the source
[14] = target: T1, human PD-1-Fc (R and D systems, …); assay: inhibition ELISA; hPDL-2 Fc blockade; remark: listed apart in the source

T1 sequence (Q15116 25-167): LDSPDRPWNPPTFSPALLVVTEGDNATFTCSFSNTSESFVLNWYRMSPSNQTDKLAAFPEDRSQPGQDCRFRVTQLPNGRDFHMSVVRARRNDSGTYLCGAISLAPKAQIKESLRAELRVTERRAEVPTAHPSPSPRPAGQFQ
Chain of human PD-1-His (R & D systems, Minneapolis, Minn.) (Q15116 25-167): as above

Kd [1]: 1.48 nM
Kd [2]: 0.16 nM
Kd [3]: 0.162 nM
Kd [4]: 0.176 nM
Kd [5]: 0.18 nM
IC50 [6]: 1.4 nM
IC50 [7]: 4.25 nM
IC50 [8]: 2.94 nM
B1: A1.5 (antibody)
heavy: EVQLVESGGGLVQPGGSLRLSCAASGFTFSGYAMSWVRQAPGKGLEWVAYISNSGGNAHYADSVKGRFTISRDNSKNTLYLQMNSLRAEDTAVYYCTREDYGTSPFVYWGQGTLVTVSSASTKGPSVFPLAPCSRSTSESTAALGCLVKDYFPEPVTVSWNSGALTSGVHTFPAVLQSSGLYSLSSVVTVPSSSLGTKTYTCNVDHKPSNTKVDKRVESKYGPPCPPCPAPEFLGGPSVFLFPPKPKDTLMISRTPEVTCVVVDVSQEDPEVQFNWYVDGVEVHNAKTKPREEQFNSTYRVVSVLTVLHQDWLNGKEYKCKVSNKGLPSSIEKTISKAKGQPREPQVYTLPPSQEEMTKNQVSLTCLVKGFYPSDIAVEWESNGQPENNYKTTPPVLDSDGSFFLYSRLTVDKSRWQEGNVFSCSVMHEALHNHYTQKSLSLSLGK
light: DIQLTQSPSSLSASVGDRVTITCRASESVDAYGISFMNWFQQKPGKAPKLLIYAASNQGSGVPSRFSGSGSGTDFTLTISSMQPEDFATYYCQQSKDVPWTFGQGTKLEIKRTVAAPSVFIFPPSDEQLKSGTASVVCLLNNFYPREAKVQWKVDNALQSGNSQESVTEQDSKDSTYSLSSTLTLSKADYEKHKVYACEVTHQGLSSPVTKSFNRGEC

EC50 [9]: 4.31 nM
EC50 [10]: 6.06 nM
EC50 [11]: 5.9 nM
B2: J43v2 mIgG2a (antibody, V domains shown)
VH: EVRLLESGGGLVKPEGSLKLSCVASGFTFSDYFMSWVRQAPGKGLEWVAHIYTKSYNYATYYSGSVKGRFTISRDDSRSMVYLQMNNLRTEDTATYYCTRDGSGYPSLDFWGQGTQVTVSS
VL: YELTQPPSASVNVGETVKITCSGDQLPKYFADWFHQRSDQTILQVIYDDNKRPSGIPERISGSSSGTTATLTIRDVRAEDEGDYYCFSGYVDSDSKLYVFGSGTQLTVLG

Kd [1]: 12.4 nM
IC50 [12]: 1.2 nM
IC50 [6]: 1.32 nM
IC50 [7]: 3.73 nM
IC50 [8]: 3.07 nM
B3: C1.1 (antibody, V domains shown)
VH: EVQLVESGGGLVQPGGSLRLSCAASGFTFSNYAMSWVRQAPGKGLEWVAYISNGGGDTHYADSLKGRFTVSRDNSKNTLYLQMNSLRAEDTAVYYCARENYGTSPFVYWGQGTLVTVSS
VL: DIQLTQSPSSLSVSVGDRATITCRASESVDNYGISFMNWFQQKPGKAPKLLIYAASNQGSGVPSRFSGSGSGTDFTLTISSMQPEDFATYYCQQSKDVPWTFGQGTKLEIKR

IC50 [13]: 1.92 nM
IC50 [14]: 1.29 nM
B4: A1.4 (antibody, V domains shown)
VH: B3 VH with N31G, G54S, D57N, T58A, L64V, V70I, A97T, N100D
VL: B3 VL with V13A, A19V, N31S
